According to PMC11220700, “Activation and Purification of ß‐Glucocerebrosidase by Exploiting its Transporter LIMP‐2 – Implications for Novel Treatment Strategies in Gaucher's and Parkinson's Disease” (Advanced Science, 2024):

Target: imiglucerase/Cerezyme (recombinant GCase, Sanofi Genzyme) (Homo sapiens) (UniProt P04062)
Experiment: MST
Conditions: Fc fusion

Chain of sLIMP‐2‐FC (Sino Biological #11063‐H03H) (Q14108 27-432): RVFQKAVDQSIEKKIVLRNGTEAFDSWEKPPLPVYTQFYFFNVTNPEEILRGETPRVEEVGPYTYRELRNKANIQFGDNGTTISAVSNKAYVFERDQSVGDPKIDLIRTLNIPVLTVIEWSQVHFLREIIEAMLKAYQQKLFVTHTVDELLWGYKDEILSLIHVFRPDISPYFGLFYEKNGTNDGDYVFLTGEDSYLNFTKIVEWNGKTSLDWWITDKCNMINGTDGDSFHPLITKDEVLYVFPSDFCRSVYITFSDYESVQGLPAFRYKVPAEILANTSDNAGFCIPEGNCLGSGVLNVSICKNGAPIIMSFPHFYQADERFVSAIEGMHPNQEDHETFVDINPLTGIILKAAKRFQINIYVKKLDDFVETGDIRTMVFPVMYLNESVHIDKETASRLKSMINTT
Chain of imiglucerase/Cerezyme (recombinant GCase, Sanofi Genzyme) (Homo sapiens) (P04062 other isoform, or with tags, fused parts or gaps): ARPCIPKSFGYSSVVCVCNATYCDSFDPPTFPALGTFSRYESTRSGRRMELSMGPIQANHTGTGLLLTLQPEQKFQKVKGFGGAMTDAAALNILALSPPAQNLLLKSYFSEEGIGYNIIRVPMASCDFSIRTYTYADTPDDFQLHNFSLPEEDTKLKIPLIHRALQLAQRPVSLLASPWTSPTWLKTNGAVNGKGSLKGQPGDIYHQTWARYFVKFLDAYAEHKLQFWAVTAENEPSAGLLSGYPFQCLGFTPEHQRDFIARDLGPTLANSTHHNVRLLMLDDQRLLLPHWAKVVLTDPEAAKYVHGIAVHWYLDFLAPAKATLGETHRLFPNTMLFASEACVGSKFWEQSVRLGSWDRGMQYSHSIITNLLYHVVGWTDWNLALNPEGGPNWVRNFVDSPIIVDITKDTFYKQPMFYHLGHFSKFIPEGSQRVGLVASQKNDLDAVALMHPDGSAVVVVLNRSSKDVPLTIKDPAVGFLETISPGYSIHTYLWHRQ

Kd: 1.38 µM
Substance: sLIMP‐2‐FC (Sino Biological #11063‐H03H)
